Starred links: 1 amine or outer side, 2 acyl side, 3 side chain; linkers in the order of their positions; H or OH if unused. Positions of bridges follow the written chain, without caps; N, C: chain ends. Non-standard residues stand in square brackets, D forms with d. Primed or numbered codes have the meaning given here. B5(10) = 2-amino-2-(pent-4-en-1-yl)hept-6-enoic acid, bis(4-pentenyl)glycine, stitching residue bearing both staples, C=CCCCC(CCCC=C)(N[*:1])C(=O)[*:2]; B5(4) = 2,2-bis(4-pentenyl)glycine = 2-amino-2-(pent-4-en-1-yl)hept-6-enoic acid (stitching residue), C=CCCCC(CCCC=C)(N[*:1])C(=O)[*:2]; B5(5) = 2,2-bis(4-pentenyl)glycine, 2-amino-2-(pent-4-en-1-yl)hept-6-enoic acid (stitching residue), C=CCCCC(CCCC=C)(N[*:1])C(=O)[*:2]; PyrS″ = (S)-1-((allyloxy)carbonyl)-3-aminopyrrolidine-3-carboxylic acid (stapling residue), C=CCOC(=O)N1CC[C@@](N[*:1])(C(=O)[*:2])C1; PyrS = (S)-1-((allyloxy)carbonyl)-3-aminopyrrolidine-3-carboxylic acid, C=CCOC(=O)N1CC[C@@](N[*:1])(C(=O)[*:2])C1; B5(3) = 2,2-bis(4-pentenyl)glycine (stitching residue), C=CCCCC(CCCC=C)(N[*:1])C(=O)[*:2]; Phe(3-CF3) = N[C@@H](Cc1cccc(C(F)(F)F)c1)C(=O)O; Phe(4-CF3) = N[C@@H](Cc1ccc(C(F)(F)F)cc1)C(=O)O; Phe(F5) = N[C@@H](Cc1c(F)c(F)c(F)c(F)c1F)C(=O)O; 1Nal = N[C@@H](Cc1cccc2ccccc12)C(=O)O; Bta = N[C@@H](Cc1csc2ccccc12)C(=O)O; αAllylPro = C=CC[C@@]1(C(=O)O)CCCN1; hPhe = N[C@@H](CCc1ccccc1)C(=O)O; 2Pal = N[C@@H](Cc1ccccn1)C(=O)O; R8 = C=CCCCCCC[C@@](C)(N)C(=O)O; S8 = C=CCCCCCC[C@](C)(N)C(=O)O

The values that follow come from US20240116985A1 (published 2024).

The target of test [1] is T1, full-length beta-Catenin (Uniprot ID P35222) (Homo sapiens (Human), UniProt P35222 2-781).
T1 construct: The AlphaScreen assay used a Histidine (Nickel Chelate) detection kit, so a His tag is likely, but no tag is described; also called B-Catenin; bCat
T1 sequence: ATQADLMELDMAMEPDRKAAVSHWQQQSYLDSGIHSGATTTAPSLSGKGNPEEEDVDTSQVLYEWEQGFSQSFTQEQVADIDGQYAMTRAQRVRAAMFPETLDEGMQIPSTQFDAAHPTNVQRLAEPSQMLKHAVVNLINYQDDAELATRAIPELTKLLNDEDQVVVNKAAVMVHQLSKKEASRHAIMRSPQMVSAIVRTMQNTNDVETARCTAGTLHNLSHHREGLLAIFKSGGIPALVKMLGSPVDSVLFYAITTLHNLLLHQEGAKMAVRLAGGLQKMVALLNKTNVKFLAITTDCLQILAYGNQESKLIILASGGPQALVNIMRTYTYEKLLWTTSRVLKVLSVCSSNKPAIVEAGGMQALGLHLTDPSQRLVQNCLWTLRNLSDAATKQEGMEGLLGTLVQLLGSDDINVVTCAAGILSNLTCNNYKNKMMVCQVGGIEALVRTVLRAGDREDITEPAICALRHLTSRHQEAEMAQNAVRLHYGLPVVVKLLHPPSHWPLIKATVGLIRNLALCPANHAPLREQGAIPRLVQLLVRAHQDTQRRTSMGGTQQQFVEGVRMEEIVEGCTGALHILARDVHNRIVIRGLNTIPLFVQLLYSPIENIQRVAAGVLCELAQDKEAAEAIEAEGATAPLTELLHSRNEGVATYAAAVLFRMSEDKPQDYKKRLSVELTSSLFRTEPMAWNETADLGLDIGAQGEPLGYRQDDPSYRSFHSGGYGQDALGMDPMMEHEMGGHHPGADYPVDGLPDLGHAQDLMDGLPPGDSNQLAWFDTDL
Nature of the test: AlphaScreen competition: full-length beta-catenin + biotin-TCF4(10-53) probe, peptide titrated. The procedure: (§1) Equal volume of the titrated peptide was added to the plate and incubated for 15 minutes at 20° C. Then 4 uL of donor and 4 uL acceptor beads at 10 ug/mL were added to the plate, for a 16 uL reaction pool and protected from light for 60 minutes at 20° C. prior to read. Reads were performed on a CLARIOstar plate reader (BMG Labtech) in duplicate, and data were fitted to a 1:1 binding model with hill slope using an in-house script. All provided concentrations are final concentrations.

The target in test [2] is T2, full-length beta-Catenin (Uniprot ID P35222) (Homo sapiens (Human), UniProt P35222 2-781).
T2 construct: also called B-Catenin; bCat
T2 sequence: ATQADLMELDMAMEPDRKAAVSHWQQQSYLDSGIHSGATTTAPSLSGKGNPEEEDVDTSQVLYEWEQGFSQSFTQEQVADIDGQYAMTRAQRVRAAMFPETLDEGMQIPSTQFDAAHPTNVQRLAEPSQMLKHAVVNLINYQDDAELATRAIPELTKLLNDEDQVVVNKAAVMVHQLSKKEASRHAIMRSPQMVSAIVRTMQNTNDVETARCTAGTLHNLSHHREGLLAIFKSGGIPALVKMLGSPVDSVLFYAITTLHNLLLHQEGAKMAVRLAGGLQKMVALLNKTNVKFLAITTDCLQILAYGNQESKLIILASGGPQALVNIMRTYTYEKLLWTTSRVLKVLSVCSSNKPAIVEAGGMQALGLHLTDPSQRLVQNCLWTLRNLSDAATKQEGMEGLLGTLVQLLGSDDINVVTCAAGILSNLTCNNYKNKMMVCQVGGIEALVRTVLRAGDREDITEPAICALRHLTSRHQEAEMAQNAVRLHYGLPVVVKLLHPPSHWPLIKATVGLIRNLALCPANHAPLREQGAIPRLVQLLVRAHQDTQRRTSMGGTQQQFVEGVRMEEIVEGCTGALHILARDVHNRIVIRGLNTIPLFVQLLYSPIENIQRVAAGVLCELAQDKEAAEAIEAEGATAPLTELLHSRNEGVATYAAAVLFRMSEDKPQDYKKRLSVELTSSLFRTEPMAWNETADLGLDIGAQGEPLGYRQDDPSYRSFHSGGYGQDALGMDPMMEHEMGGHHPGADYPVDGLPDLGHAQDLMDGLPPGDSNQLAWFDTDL
The test can be described thus: Alphascreen competition; biotin-TCF4(10-53) probe with full-length beta-catenin. The procedure:
as §1
(Bead proximity is the source of the signal in Alpha formats.)

B1: I-234 (peptide)
peptide: Ac-[αAllylPro]DA[B5(3)]D[1Nal]AAFV[S8]FWQ-NH2
modifications: staple 1-4, 4-11
notes: Stapled peptide composition; also called Ac-PL3-Asp-Ala-B5-Asp-1NapA-Ala-Ala-Phe-Val-S8-Phe-Trp-Gln-NH2
Consider B1, for which the EC50 (as a rule, the concentration giving half of the maximal effect) in test [1] amounted to 7.53 µM.

B2: I-231 (peptide)
peptide: Ac-[αAllylPro]DA[B5(4)]D[Bta]AAFV[S8]FWQ-NH2
modifications: staple 1-4, 4-11
notes: Stapled peptide composition; also called Ac-PL3-Asp-Ala-B5-Asp-BztA-Ala-Ala-Phe-Val-S8-Phe-Trp-Gln-NH2
B2: in test [1], the EC50 stood at 6.53 µM.

B3: I-230 (peptide)
peptide: Ac-[αAllylPro]DA[B5(4)][2Pal]EAAFV[S8]FWQ-NH2
modifications: staple 1-4, 4-11; also: separate staple isomer composition
notes: Stapled peptide composition; also called Ac-PL3-Asp-Ala-B5-2pyrA-Glu-Ala-Ala-Phe-Val-S8-Phe-Trp-Gln-NH2
As to B3, in test [1], the EC50 stood at 4.61 µM.

B4: I-237 (peptide)
peptide: Ac-[αAllylPro]DA[B5(3)]DDAA[Phe(3-CF3)]V[S8]FWQ-NH2
modifications: staple 1-4, 4-11
notes: Stapled peptide composition; also called Ac-PL3-Asp-Ala-B5-Asp-Asp-Ala-Ala-3F3MeF-Val-S8-Phe-Trp-Gln-NH2
Consider B4, for which, in test [1], the EC50 amounted to 0.384 µM.

Ac-FDA[R8]DDAA[hPhe]V[PyrS″]FWQ-NH2 (staple 4-11; also: earlier-eluting HPLC peak (staple isomer), Stapled peptide composition) [I-117] came in with an EC50 in test [2] not below 10 µM.

B5: I-236 (peptide)
peptide: Ac-[αAllylPro]DA[B5(3)]DDAA[Phe(3-CF3)]V[S8]FWQ-NH2
modifications: staple 1-4, 4-11
notes: as for B4
Take B5: the EC50 in test [1] was 0.384 µM.

B6: I-246 (peptide)
peptide: Ac-[αAllylPro]DA[B5(4)]D[Phe(4-CF3)]AAFV[S8]FWQ-NH2
modifications: staple 1-4, 4-11
notes: Stapled peptide composition; also called Ac-PL3-Asp-Ala-B5-Asp-4F3MeF-Ala-Ala-Phe-Val-S8-Phe-Trp-Gln-NH2
With B6, in test [1], the EC50 is 3.97 µM.

B7: I-245 (peptide)
peptide: Ac-[αAllylPro]DA[B5(4)]D[Phe(3-CF3)]AAFV[S8]FWQ-NH2
modifications: staple 1-4, 4-11
notes: Stapled peptide composition; also called Ac-PL3-Asp-Ala-B5-Asp-3F3MeF-Ala-Ala-Phe-Val-S8-Phe-Trp-Gln-NH2
For B7, the EC50 in test [1] is 2.96 µM.

B8: I-244 (peptide)
peptide: Ac-[αAllylPro]DA[B5(5)]D[Phe(3-CF3)]AAFV[S8]FWQ-NH2
modifications: staple 1-4, 4-11
notes: as for B7
B8: in test [1], the EC50 was 2.96 µM.

B9: I-247 (peptide)
peptide: Ac-[αAllylPro]DA[B5(4)]D[Phe(4-CF3)]AAFV[S8]FWQ-NH2
modifications: staple 1-4, 4-11
notes: as for B6
On to B9, for which, in test [1], the EC50 was 3.97 µM.

B10: I-233 (peptide)
peptide: Ac-[αAllylPro]DA[B5(3)]DWAAFV[S8]FWQ-NH2
modifications: staple 1-4, 4-11
notes: Stapled peptide composition; also called Ac-PL3-Asp-Ala-B5-Asp-Trp-Ala-Ala-Phe-Val-S8-Phe-Trp-Gln-NH2
On to B10, for which, in test [1], the EC50 came out at 5.9 µM.

B11: I-221 (peptide)
peptide: Ac-FDA[R8]DDAAFT[PyrS]FWQ-NH2
modifications: staple 4-11
notes: Stapled peptide composition; also called Ac-Phe-Asp-Ala-R8-Asp-Asp-Ala-Ala-Phe-Thr-PyrS-Phe-Trp-Gln-NH2
Turning to B11, the EC50 in test [1] came to 6.58 µM.

B12: I-228 (peptide)
peptide: Ac-FDA[R8]DDAAFV[PyrS][Phe(F5)]WQ-NH2
modifications: staple 4-11
notes: Stapled peptide composition; also called Ac-Phe-Asp-Ala-R8-Asp-Asp-Ala-Ala-Phe-Val-PyrS-Pff-Trp-Gln-NH2
B12: the EC50 in test [1] was 5.91 µM.

B13: I-225 (peptide)
peptide: Ac-FDA[R8]DDAAFV[PyrS][Phe(F5)]WQ-NH2
modifications: staple 4-11
notes: as for B12
For B13, the EC50 in test [1] turned out to be 7.63 µM.

B14: I-227 (peptide)
peptide: Ac-FDA[R8]DDAAFV[PyrS″][Phe(F5)]WQ-NH2
modifications: staple 4-11
notes: as for B12
With B14, in test [1], the EC50 came out at 5.91 µM.

B15: I-226 (peptide)
peptide: Ac-FDA[R8]DDAAFV[PyrS″][Phe(F5)]WQ-NH2
modifications: staple 4-11
notes: as for B12
Turning to B15, the EC50 in test [1] turned out to be 7.63 µM.

B16: I-240 (peptide)
peptide: Ac-[αAllylPro]DA[B5(5)]DDAA[Phe(4-CF3)]V[S8]FWQ-NH2
modifications: staple 1-4, 4-11; not fully specified; printed as Ac-PL3-Asp-Ala-B5-Asp-Asp-Ala-Ala-4F3MeF-Val-S8-Phe-Trp-Gln-NH2
notes: Stapled peptide composition; also called Ac-PL3-Asp-Ala-B5-Asp-Asp-Ala-Ala-4F3MeF-Val-S8-Phe-Trp-Gln-NH2
Consider B16, for which, in test [1], the half-maximal effective concentration (EC50) was found to be 3.47 µM.

B17: I-128 (peptide)
peptide: Ac-[αAllylPro]DA[B5(10)]DEAAFV[S8]FW-NH2
modifications: staple 1-4, 4-11
notes: Stitched (two-staple) peptide composition
In turn, B17 came in with an EC50 in test [2] of 0.907 µM.

B18: I-224 (peptide)
peptide: Ac-FDA[R8]DDAAFT[PyrS]FWQ-NH2
modifications: staple 4-11
notes: as for B11
For B18, the concentration giving a half-maximal response (EC50) in test [1] came out at 4.12 µM.
